Values of other authors in PMC9085562.

How the values were obtained:
[1] = molecular target: H3K9me1 peptide (Homo sapiens) (UniProt P68431)
[2] = molecular target: H3K9me3 peptide (Homo sapiens) (UniProt P68431); test: fluorescence polarization

Kd [1]: 12.5 µM
Kd [2]: 3.2 µM
Substance: Cbx1 (from UniProt P83916)
